Experimental data reported in patent publication US20110212075A1, “SCREENING METHOD FOR POLYMORPHIC MARKERS IN HTRA1 GENE IN NEURODEGENERATIVE DISORDERS” (SIEMENS AKTIENGESELLSCHAFT, priority 2007, published 2011).

Key:
[1] = molecular target: T1, HtrA1 composed of protease and PDZ domain (Homo sapiens, UniProt Q92743); experiment: Binding of peptide to HtrA1 by Isothermal Titration calorimetry
T1 construct: HtrA1 composed of protease and PDZ domain
Text: (§1) HtrA1 interacts with presenilin 1 (PS1). This was evident from data obtained from copurification, comigration during size exclusion chromatography and two hybrid analyses. […] Such a peptide could be used as a basis to synthesise a potent HtrA1 activator that could be of therapeutic relevance. […] This peptide did however not bind to HtrA1 composed of protease and PDZ domain as shown by Isothermal Titration calorimetry. Only after adding […] residues, the peptide did bind to HtrA1.

HtrA1 = molecular target: T2, HtrA1 (Homo sapiens, UniProt Q92743); experiment: HtrA1 activation by peptides (degradation of wt-tau, SDS/PAGE); assay type: biochemical; conditions: peptide 200 μM in DMSO, HtrA1 (0.04 μg) preincubated 10 minutes at 37° C., wt-tau (2 μg) 10 minutes at 37° C., Coomassie gel, FIG. 18
T2 construct: made in house; host or cells: Escherichia coli BL21 D3+
Method: Purified wt-tau (2 μg) was incubated with HtrA1 (0.04 μg) for 10 minutes at 37° C. HtrA1 was preincubated with different peptides for 10 minutes at 37° C. All peptides were dissolved in DMSO and added to a final concentration of 200 μM. Wt-tau was incubated with DQLAFHQFYI (lane 1), KKKDSRIWWV (lane 2) and with HtrA1 and DMSO as a control (lane 3). Samples were loaded on a SDS/PAGE. The gel was stained with Coomassie Blue.
as §1

PDZ domain of HtrA1 = PDZ domain of HtrA1 (Homo sapiens, UniProt Q92743); conditions: Runyon et al. Protein Sci. 16:2454-71 (2007); cited from earlier work
Chain of PDZ domain of HtrA1 (Q92743 365-467 limits assumed): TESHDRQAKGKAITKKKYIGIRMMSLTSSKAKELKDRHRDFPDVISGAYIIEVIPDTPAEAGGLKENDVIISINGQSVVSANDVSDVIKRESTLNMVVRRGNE

T2 sequence (Q92743 158-480 limits assumed): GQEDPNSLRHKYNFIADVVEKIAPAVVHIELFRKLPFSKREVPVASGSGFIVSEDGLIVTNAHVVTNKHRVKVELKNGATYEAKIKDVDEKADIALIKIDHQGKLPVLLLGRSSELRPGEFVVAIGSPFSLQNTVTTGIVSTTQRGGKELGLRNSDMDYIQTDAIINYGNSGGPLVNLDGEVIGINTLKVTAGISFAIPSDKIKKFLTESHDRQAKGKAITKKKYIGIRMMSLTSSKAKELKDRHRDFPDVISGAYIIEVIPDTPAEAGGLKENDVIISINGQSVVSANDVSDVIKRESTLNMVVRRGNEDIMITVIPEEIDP
T1 sequence (Q92743 158-480 limits assumed): as above

Substance	binding to HtrA1 [1]	activation of HtrA1 as shown by a more efficient degradation of tau (HtrA1)	binding to the PDZ domain of HtrA1 (PDZ domain of HtrA1)
KKKDSRIWWV [second peptide, DSRIWWV with 3 added N-terminal residues]	did bind	weaker activator	–
DSRIWWV [reference compound]	not bind	–	excellent binding
DQLAFHQFYI [peptide comprised of the 10 C-terminal residues of PS1 (presenilin 1)]	–	activate HtrA1	–
